The source of these data is paper PMC10786891, “Massively parallel profiling of RNA-targeting CRISPR-Cas13d”.

The labels stand for the following.
T1: EsCas13d, nuclease-dead (Eubacterium siraeum, UniProt B0MS50, R295A;H300A;R849A;H854A)
T1 sequence: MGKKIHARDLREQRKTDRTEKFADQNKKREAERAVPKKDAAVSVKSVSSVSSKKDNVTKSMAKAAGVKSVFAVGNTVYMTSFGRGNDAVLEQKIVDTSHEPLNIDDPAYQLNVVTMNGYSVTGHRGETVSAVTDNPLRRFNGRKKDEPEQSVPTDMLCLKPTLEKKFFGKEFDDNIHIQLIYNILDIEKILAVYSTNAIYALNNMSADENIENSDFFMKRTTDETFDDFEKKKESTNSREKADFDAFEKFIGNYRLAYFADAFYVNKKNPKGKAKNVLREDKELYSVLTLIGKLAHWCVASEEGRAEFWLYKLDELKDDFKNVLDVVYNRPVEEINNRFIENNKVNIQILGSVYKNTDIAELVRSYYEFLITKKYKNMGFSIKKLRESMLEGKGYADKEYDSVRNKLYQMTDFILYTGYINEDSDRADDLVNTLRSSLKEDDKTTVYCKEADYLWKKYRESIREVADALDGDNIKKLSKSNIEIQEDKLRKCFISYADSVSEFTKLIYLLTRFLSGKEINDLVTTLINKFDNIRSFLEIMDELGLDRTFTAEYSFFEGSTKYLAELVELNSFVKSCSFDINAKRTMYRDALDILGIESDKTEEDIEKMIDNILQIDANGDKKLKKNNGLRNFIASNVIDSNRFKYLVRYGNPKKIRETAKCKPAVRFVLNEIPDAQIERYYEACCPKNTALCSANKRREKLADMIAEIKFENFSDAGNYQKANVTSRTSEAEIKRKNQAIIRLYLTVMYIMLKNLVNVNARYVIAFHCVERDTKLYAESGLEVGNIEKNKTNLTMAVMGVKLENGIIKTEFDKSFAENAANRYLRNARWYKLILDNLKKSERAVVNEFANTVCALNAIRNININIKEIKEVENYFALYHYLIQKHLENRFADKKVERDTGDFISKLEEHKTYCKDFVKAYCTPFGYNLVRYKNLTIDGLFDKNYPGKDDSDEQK

B1: target 1 U8A,G13A (mixed)
RNA 1: CACCCGUGCAAAAAUGCAGGGGUCUAAAACUGAGCGGAUAACCUCUCUAUGG
RNA 2: GGGAAUGGAUCCACAUCUACGAAUUCGUACCAUAGAGAAGUUAACCGCUCACCGAGAUCGGAAGAGCACACGU
B2: target 1 insU 3' of 20,insC 3' of 17 (mixed)
RNA 1: CACCCGUGCAAAAAUGCAGGGGUCUAAAACUGAGCGGAUAACCUCUCUAUGG
RNA 2: GGGAAUGGAUCCACAUCUACGAAUUCGUACCAUUAGCAGAGGUUAUCCGCUCACCGAGAUCGGAAGAGCACACGU
B3: target 1 insC 3' of 9,insG 3' of 8 (mixed)
RNA 1: CACCCGUGCAAAAAUGCAGGGGUCUAAAACUGAGCGGAUAACCUCUCUAUGG
RNA 2: GGGAAUGGAUCCACAUCUACGAAUUCGUACCAUAGAGAGGUUACUGCCGCUCACCGAGAUCGGAAGAGCACACGU
B4: target 1 U8C,G17U (mixed)
RNA 1: CACCCGUGCAAAAAUGCAGGGGUCUAAAACUGAGCGGAUAACCUCUCUAUGG
RNA 2: GGGAAUGGAUCCACAUCUACGAAUUCGUACCAUAUAGAGGUUACCCGCUCACCGAGAUCGGAAGAGCACACGU
B5: target 1 insC 3' of 12,insC 3' of 1 (mixed)
RNA 1: CACCCGUGCAAAAAUGCAGGGGUCUAAAACUGAGCGGAUAACCUCUCUAUGG
RNA 2: GGGAAUGGAUCCACAUCUACGAAUUCGUACCAUAGAGAGGCUUAUCCGCUCACCCGAGAUCGGAAGAGCACACGU
B6: target 1 insG 3' of 8,insG 3' of 7 (mixed)
RNA 1: CACCCGUGCAAAAAUGCAGGGGUCUAAAACUGAGCGGAUAACCUCUCUAUGG
RNA 2: GGGAAUGGAUCCACAUCUACGAAUUCGUACCAUAGAGAGGUUAUGCGCGCUCACCGAGAUCGGAAGAGCACACGU
B7: target 1 U11A,A18G (mixed)
RNA 1: CACCCGUGCAAAAAUGCAGGGGUCUAAAACUGAGCGGAUAACCUCUCUAUGG
RNA 2: GGGAAUGGAUCCACAUCUACGAAUUCGUACCAUGGAGAGGAUAUCCGCUCACCGAGAUCGGAAGAGCACACGU
B8: target 1 C4G,U19G (mixed)
RNA 1: CACCCGUGCAAAAAUGCAGGGGUCUAAAACUGAGCGGAUAACCUCUCUAUGG
RNA 2: GGGAAUGGAUCCACAUCUACGAAUUCGUACCAGAGAGAGGUUAUCCGGUCACCGAGAUCGGAAGAGCACACGU
B9: target 1 insC 3' of 12,insA 3' of 2 (mixed)
RNA 1: CACCCGUGCAAAAAUGCAGGGGUCUAAAACUGAGCGGAUAACCUCUCUAUGG
RNA 2: GGGAAUGGAUCCACAUCUACGAAUUCGUACCAUAGAGAGGCUUAUCCGCUCAACCGAGAUCGGAAGAGCACACGU
B10: target 1 insU 3' of 18,insA 3' of 7 (mixed)
RNA 1: CACCCGUGCAAAAAUGCAGGGGUCUAAAACUGAGCGGAUAACCUCUCUAUGG
RNA 2: GGGAAUGGAUCCACAUCUACGAAUUCGUACCAUAUGAGAGGUUAUCACGCUCACCGAGAUCGGAAGAGCACACGU
B11: target 1 insG 3' of 16,insA 3' of 13 (mixed)
RNA 1: CACCCGUGCAAAAAUGCAGGGGUCUAAAACUGAGCGGAUAACCUCUCUAUGG
RNA 2: GGGAAUGGAUCCACAUCUACGAAUUCGUACCAUAGAGGAGAGUUAUCCGCUCACCGAGAUCGGAAGAGCACACGU
B12: target 1 insU 3' of 21,insA 3' of 10 (mixed)
RNA 1: CACCCGUGCAAAAAUGCAGGGGUCUAAAACUGAGCGGAUAACCUCUCUAUGG
RNA 2: GGGAAUGGAUCCACAUCUACGAAUUCGUACCUAUAGAGAGGUUAAUCCGCUCACCGAGAUCGGAAGAGCACACGU
B13: target 1 insG 3' of 22,insC 3' of 3 (mixed)
RNA 1: CACCCGUGCAAAAAUGCAGGGGUCUAAAACUGAGCGGAUAACCUCUCUAUGG
RNA 2: GGGAAUGGAUCCACAUCUACGAAUUCGUACGCAUAGAGAGGUUAUCCGCUCCACCGAGAUCGGAAGAGCACACGU
B14: target 1 U3A,A16C (mixed)
RNA 1: CACCCGUGCAAAAAUGCAGGGGUCUAAAACUGAGCGGAUAACCUCUCUAUGG
RNA 2: GGGAAUGGAUCCACAUCUACGAAUUCGUACCAUAGCGAGGUUAUCCGCACACCGAGAUCGGAAGAGCACACGU
B15: target 1 insC 3' of 22,insG 3' of 2 (mixed)
RNA 1: CACCCGUGCAAAAAUGCAGGGGUCUAAAACUGAGCGGAUAACCUCUCUAUGG
RNA 2: GGGAAUGGAUCCACAUCUACGAAUUCGUACCCAUAGAGAGGUUAUCCGCUCGACCGAGAUCGGAAGAGCACACGU
B16: target 1 insC 3' of 11,insA 3' of 6 (mixed)
RNA 1: CACCCGUGCAAAAAUGCAGGGGUCUAAAACUGAGCGGAUAACCUCUCUAUGG
RNA 2: GGGAAUGGAUCCACAUCUACGAAUUCGUACCAUAGAGAGGUCUAUCCAGCUCACCGAGAUCGGAAGAGCACACGU
B17: target 1 insC 3' of 12,insU 3' of 1 (mixed)
RNA 1: CACCCGUGCAAAAAUGCAGGGGUCUAAAACUGAGCGGAUAACCUCUCUAUGG
RNA 2: GGGAAUGGAUCCACAUCUACGAAUUCGUACCAUAGAGAGGCUUAUCCGCUCAUCCGAGAUCGGAAGAGCACACGU
B18: target 1 insC 3' of 18,insA 3' of 4 (mixed)
RNA 1: CACCCGUGCAAAAAUGCAGGGGUCUAAAACUGAGCGGAUAACCUCUCUAUGG
RNA 2: GGGAAUGGAUCCACAUCUACGAAUUCGUACCAUACGAGAGGUUAUCCGCAUCACCGAGAUCGGAAGAGCACACGU
B19: target 1 C4A,G5U (mixed)
RNA 1: CACCCGUGCAAAAAUGCAGGGGUCUAAAACUGAGCGGAUAACCUCUCUAUGG
RNA 2: GGGAAUGGAUCCACAUCUACGAAUUCGUACCAUAGAGAGGUUAUCCUAUCACCGAGAUCGGAAGAGCACACGU
B20: target 1 insA 3' of 13,insU 3' of 9 (mixed)
RNA 1: CACCCGUGCAAAAAUGCAGGGGUCUAAAACUGAGCGGAUAACCUCUCUAUGG
RNA 2: GGGAAUGGAUCCACAUCUACGAAUUCGUACCAUAGAGAGAGUUAUUCCGCUCACCGAGAUCGGAAGAGCACACGU
B21: target 1 insC 3' of 12,insG 3' of 1 (mixed)
RNA 1: CACCCGUGCAAAAAUGCAGGGGUCUAAAACUGAGCGGAUAACCUCUCUAUGG
RNA 2: GGGAAUGGAUCCACAUCUACGAAUUCGUACCAUAGAGAGGCUUAUCCGCUCAGCCGAGAUCGGAAGAGCACACGU
B22: target 1 C6U,C7A (mixed)
RNA 1: CACCCGUGCAAAAAUGCAGGGGUCUAAAACUGAGCGGAUAACCUCUCUAUGG
RNA 2: GGGAAUGGAUCCACAUCUACGAAUUCGUACCAUAGAGAGGUUAUAUGCUCACCGAGAUCGGAAGAGCACACGU
B23: target 1 A14G,C22A (mixed)
RNA 1: CACCCGUGCAAAAAUGCAGGGGUCUAAAACUGAGCGGAUAACCUCUCUAUGG
RNA 2: GGGAAUGGAUCCACAUCUACGAAUUCGUAACAUAGAGGGGUUAUCCGCUCACCGAGAUCGGAAGAGCACACGU
B24: target 1 insU 3' of 15,insU 3' of 7 (mixed)
RNA 1: CACCCGUGCAAAAAUGCAGGGGUCUAAAACUGAGCGGAUAACCUCUCUAUGG
RNA 2: GGGAAUGGAUCCACAUCUACGAAUUCGUACCAUAGAGUAGGUUAUCUCGCUCACCGAGAUCGGAAGAGCACACGU
B25: target 1 insA 3' of 22 (mixed)
RNA 1: CACCCGUGCAAAAAUGCAGGGGUCUAAAACUGAGCGGAUAACCUCUCUAUGG
RNA 2: GGGAAUGGAUCCACAUCUACGAAUUCGUACACAUAGAGAGGUUAUCCGCUCACCGAGAUCGGAAGAGCACACGU
B26: target 1 A9U,U10C (mixed)
RNA 1: CACCCGUGCAAAAAUGCAGGGGUCUAAAACUGAGCGGAUAACCUCUCUAUGG
RNA 2: GGGAAUGGAUCCACAUCUACGAAUUCGUACCAUAGAGAGGUCUUCCGCUCACCGAGAUCGGAAGAGCACACGU
B27: target 1 insU 3' of 15,insC 3' of 9 (mixed)
RNA 1: CACCCGUGCAAAAAUGCAGGGGUCUAAAACUGAGCGGAUAACCUCUCUAUGG
RNA 2: GGGAAUGGAUCCACAUCUACGAAUUCGUACCAUAGAGUAGGUUACUCCGCUCACCGAGAUCGGAAGAGCACACGU

The data set addresses T1, EsCas13d, nuclease-dead. The data set can be described thus: crRNA (strand 1, pre-loaded); Mg2+; 40 mM Tris-HCl pH 7.5, 150 mM NaCl, 6 mM MgCl2, 1 mM DTT, 0.1% Tween-20, 0.2 mg/ml BSA; 25 C; 10 min per concentration, then washed. The conditions noted are these: tags: His6-TwinStrep-SUMO cleaved; N-terminal SNAP kept (SNAP-Surface 488); label: 3' end held by stalled T7 RNA polymerase.
Broadly, the Kd is the constant that tells how readily two partners part at equilibrium. For B1, binding was put at a Kd of 15 ± 0.7 nM.
For B2 the value was 44 ± 8 nM.
Next, B3: 11.1 ± 0.4 nM; B4: 41 ± 4 nM.
For B5 the value was 7.7 ± 0.5 nM; for B6, 8.24 ± 0.23 nM; for B7, 80 ± 40 nM.
Consider B8, for which the Kd was 100 ± 50 nM.
For B9 the value was 9.9 ± 1.1 nM; for B10, 23.6 ± 2.6 nM.
Next, B11: 16.1 ± 1.5 nM; B12: 39.2 ± 2.4 nM; B13: 31.2 ± 3.4 nM.
In turn, B14 registered a Kd of 76 ± 7 nM. This Kd is about 2.4-fold higher than that of the molecule before.
For B15 the value was 21.1 ± 3.2 nM; for B16, 47 ± 14 nM; for B17, 12 ± 1.1 nM.
B18 came in with a Kd of 38 ± 9 nM.
Next, B19: 30.6 ± 2.4 nM; B20: 4.6 ± 0.5 nM.
For B21 the value was 8.5 ± 1.2 nM.
In the case of B22, the Kd was 8.6 ± 0.6 nM.
As to B23, the affinity, expressed as Kd, was 40 ± 4 nM.
Next, B24: 8.47 ± 0.27 nM; B25: 14.8 ± 1.1 nM.
In turn, B26 registered a dissociation constant Kd of 8.6 ± 0.9 nM.
Next, B27: 67 ± 7 nM.
